Experimental data: paper PMC11630628 (Molecular Plant, 2024)

Legend:
[1] = test system: purified His-tagged MIK2 ectodomain; assay: Pull-down assay with biotinylated peptides; type: binding, Arabidopsis thaliana; settings: biotinylated peptide, streptavidin magnetic beads, 20 mM Tris-HCl pH 7.3, 150 mM NaCl, 0.1% NP-40, anti-His Western blot, repeated three times, conclusion also rests on MST
Description: (§1) Subsequently, 30 μL streptavidin magnetic beads (New England Biolabs) were added to each sample and incubated for 1 h at 4°C, followed by washing 5–6 times with 1.0 mL of interactive buffer. The proteins bound to the beads were then eluted using interactive buffer containing 5× SDS loading buffer, and western blot analysis was conducted as previously described ([Lan et al., 2023]). In the competitive binding assay, 50 nM purified MIK2 protein featuring a His-tag at its C-terminal was initially mixed with 250 nM of biotinylated SCOOP10. […] After thorough mixing, the beads underwent 5–6 washes to meticulously remove any residual proteins, and then the preparations were subjected to detailed analysis via western blotting to probe the interactions.

[2] = test system: PROSCOOP12 transcript; assay: qPCR expression of PROSCOOP12 in detached leaves; type: cell-based, Arabidopsis thaliana
Text: (§2) Total RNA was isolated from Arabidopsis leaves with the RNAiso Plus (TAKARA) and reverse transcribed using the PrimeScript RT reagent Kit (TAKARA). qPCR reactions were implemented in an Applied Biosystems 7500 Real-Time PCR system with the SYBR Premix Ex Taq II (TAKARA). ACTIN was used as the reference gene for qPCR analyses. The primers used for qPCR are listed in Supplemental Table 2.

[3] = test system: bak1 mutants; set-up: method as in Hou et al., 2021b; settings: ref Hou et al., 2021b; cited from earlier work
[4] = test system: 6× His-tagged ectodomains of MIK2; assay: Competitive pull-down assay; type: binding, Arabidopsis thaliana; settings: 50 nM MIK2 ectodomain, 250 nM biotinylated SCOOP10 or SCOOP12, 1 h, then increasing concentrations of the other peptide; anti-His Western blot, densitometry; three replicates
Description: as §1

[5] = target: T1, MIK2 ectodomain (MIK2^LRR-MBP) (Arabidopsis thaliana, UniProt Q8VZG8); assay: MST competitive binding analysis; settings: MST competition (Figure 5F)
T1 construct: expressing only the ectodomain (residues 45–707); made in house; host or cells: E. coli strain BL21
T1 sequence (Q8VZG8 45-707): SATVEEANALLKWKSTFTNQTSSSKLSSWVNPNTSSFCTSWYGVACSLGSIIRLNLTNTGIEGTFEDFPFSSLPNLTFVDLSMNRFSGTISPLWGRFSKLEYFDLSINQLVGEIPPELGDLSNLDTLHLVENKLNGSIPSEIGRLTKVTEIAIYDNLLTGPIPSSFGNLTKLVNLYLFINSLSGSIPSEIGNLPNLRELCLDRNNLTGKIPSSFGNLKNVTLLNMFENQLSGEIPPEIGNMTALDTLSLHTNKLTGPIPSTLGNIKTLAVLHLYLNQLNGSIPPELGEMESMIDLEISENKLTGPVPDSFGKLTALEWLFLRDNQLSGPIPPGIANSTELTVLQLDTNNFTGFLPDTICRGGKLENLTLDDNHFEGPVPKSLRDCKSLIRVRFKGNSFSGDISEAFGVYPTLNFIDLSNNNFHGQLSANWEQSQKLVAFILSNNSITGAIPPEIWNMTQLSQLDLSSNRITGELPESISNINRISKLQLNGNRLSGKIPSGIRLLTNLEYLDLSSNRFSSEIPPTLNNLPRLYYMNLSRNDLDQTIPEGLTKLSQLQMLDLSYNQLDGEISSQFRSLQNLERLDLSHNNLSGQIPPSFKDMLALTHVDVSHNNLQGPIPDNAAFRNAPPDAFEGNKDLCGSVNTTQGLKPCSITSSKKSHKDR
Description: To express MIK2 protein in the soluble form, the truncated sequence of MIK2 (MIK2 ^LRR) expressing only the ectodomain (residues 45–707) was amplified from the gMIK2-Blunt subclone vector and inserted into the pET41 vector, fused with a 6× His-MBP tag. Then, the ectodomain of MIK2 (MIK2^LRR) in the absence of the putative N-terminal signal peptide was expressed in E. coli strain BL21 (TransGen). Cell cultures were grown to 0.6 optical density 600 and then induced with 0.3 mM isopropyl-β-D-thiogalactopyranoside for 30 h at 13°C. The mixture was then centrifuged at 12 000 rpm to separate the cells from the medium. The pellets were resuspended with the binding buffer (20 mM phosphate buffer, 500 mM NaCl, 50 mM imidazole, pH 7.4). The cells were sonicated on ice for 30 min in the lysis buffer (0.2 mg/mL lysozyme, 20 μg/mL DNAse, 1 mM MgCl2, 1 mM PMSF). […]
A Monolith NT.115 system (Nanotemper Technologies) was used to perform MST assays. […] The concentration of purified MIK2^LRR was measured with the BCA Protein Quantification Kit (Vazyme) and then diluted with ddH2O to 20 μM. […] MST results were analyzed using the Nanotemper analysis software (MO. Affinity) ([Jerabek-Willemsen et al., 2011]). […] The dissociation constant Ki was determined using the Ki Finder Tool available on the NanoTemper Technologies website (http://www.nanotempertechnologies.com/get-it-all/tools/ki-finder/).

[6] = test system: Arabidopsis mik2 mutant detached rosette leaves; assay: Detached leaf senescence assay, mik2 mutants; type: in vivo, Arabidopsis thaliana; settings: SCOOP10 1 μM (Figures 3A–3C)
Description: (§3) A. thaliana ecotype Columbia-0 and mutants used in this study include mik2-1 (SALK_06269), mik2-2 (CS419958), proscoop10-1 (SALK_080439), and proscoop10-2 (SALK_027949), which were obtained from ABRC. The proscoop12 CRISPR-Cas9-generated mutants were kindly provided by Dr. Elia Stahi at the University of Lausanne, Switzerland ([Stahl et al., 2022]). Imbibed seeds were incubated at 4°C in a refrigerator for 2 days before sowing on the soil mix (3 parts commercial soil: 1 parts vermiculite) and grown under the long-day condition (16 h light/8 h dark) in a growth chamber with 150 μmol m^−2 s^−1 light intensity. For the senescence phenotyping of detached leaves, the fifth and sixth rosette leaves of 25-day-old plants were removed and placed in Petri dishes with the adaxial side facing up. The Petri dishes were sealed with parafilm to prevent water loss, and the leaves were incubated with deionized water. The application of exogenous peptides followed the previously established method ([Zhang et al., 2022a], [2022b]). […] All data including plant phenotypes and gene expression presented in this study were analyzed with GraphPad Prism 9, and at least three biological replicates were included in each experiment. Chl content, photochemical efficiency of PSII (Fv/Fm ratio), and ion leakage were determined as previously described ([Zhang et al., 2020], [2022b]; [Guo et al., 2022]).

[7] = test system: bak1-5 serk4 double mutant; set-up: method as in Hou et al., 2021b; settings: ref Hou et al., 2021b; cited from earlier work
[8] = test system: PROSCOOP10 transcript; assay: qPCR expression of PROSCOOP10 in detached leaves; type: cell-based, Arabidopsis thaliana
Text: as §2

[9] = test system: ORE1, NAP and SAG12 transcripts; assay: qPCR expression of senescence genes in detached leaves; type: cell-based, Arabidopsis thaliana; settings: 1 μM peptide, 0, 1, 5, 10 h, detached sixth rosette leaves, vs mock, ACTIN reference, three experiments
Text: as §2

[10] = test system: bik1 pbl1 double mutants; set-up: method as in Hou et al., 2021b; settings: ref Hou et al., 2021b; cited from earlier work
[11] = test system: Arabidopsis WT (Col-0) detached rosette leaves; assay: Detached leaf senescence assay, WT; type: in vivo, Arabidopsis thaliana
Description: as §3

B1: SERINE-RICH ENDOGENOUS PEPTIDE 10 (peptide)
peptide: ALPYHHELFLGRKRMNYYKPNSAIGTPSSTSDHAPGSNGRKLMSIYRPNGDIFTGPSGSGHGGGRTPAP
notes: processed from PROSCOOP10; synthesized by GenScript
interaction with MIK2 ectodomain [1]: SCOOP10 interacts with MIK2
PROSCOOP12 expression ([2]; 1 μM peptide, no pretreatment, detached leaves, vs mock, qPCR): induce the expression of PROSCOOP12 within 1 h
PROSCOOP12 expression, SCOOP10 pretreatment then SCOOP10 ([2]; pretreated with SCOOP10 24 h, treated with SCOOP10 for 1, 5 and 10 h): even stronger
sensitivity of bak1 mutants (root growth inhibition, published) [3]: sensitive to SCOOP10 application
competition for MIK2 binding (pull-down signal) [4]: the SCOOP12-MIK2 complex resulted in a stable interaction with SCOOP10 application at the concentrations tested
effect of competitor peptide on the MIK2 complex of the other peptide (MST) [5]: limited effect on the MIK2-SCOOP12 complex stability maintenance
senescence induction, WT compared with mik2 mutants [6]: More profound senescence was induced by SCOOP10 treatments in WT than in mik2 mutant plants
root growth inhibition in bak1-5 serk4 (published) [7]: milder phenotype in response to SCOOP10 treatment
PROSCOOP10 expression ([8]; 1 μM peptide, detached leaves, vs mock, qPCR): reduced expression
PROSCOOP10 expression, SCOOP10/SCOOP10-pretreated leaves ([8]; reduction in SCOOP10/SCOOP10-pretreated leaves vs mock, 1 μM): more pronounced
expression of ORE1, NAP and SAG12 [9]: strongly and relatively quickly induced the expression of the tested transcripts
root growth inhibition in bik1 pbl1 (published) [10]: only mild alleviation of the SCOOP10-induced root growth inhibition
senescence phenotype, SCOOP10 alone (sequential assay control) ([11]; SCOOP10 alone, Figures 5D and 5E, n = 8 leaves per replicate): significant senescence phenotypes
leaf senescence phenotype, detached leaves ([11]; exogenous peptide, SCOOP10 1 μM for 5 days (Figure 2A, 2B; Supplemental Figure 3)): premature senescence phenotype in detached leaves
